Where a chain is given by its changes, count along the chain named.
B1: proMdF3'5'H W3 (dsDNA)
DNA 1: TCACTCATATAGGTAAACTTTGTCAAGGATGTTCATGTAATTATAA
DNA 2: TTATAATTACATGAACATCCTTGACAAAGTTTACCTATATGAGTGA
B2: proMdF3'5'H W3 mutant (dsDNA)
DNA 1: B1 DNA 1 with T23G, C24A
DNA 2: B1 DNA 2 with G23T, A24C
B3: proMdMYB10 W2 (dsDNA)
DNA 1: TGATAAAGGTATCTTATGGTGGTCAAAGATGTGTGTTGTAACTAGT
DNA 2: ACTAGTTACAACACACATCTTTGACCACCATAAGATACCTTTATCA
B4: proMdMYB10 W2 mutant (dsDNA)
DNA 1: B3 DNA 1 with T23G, C24A
DNA 2: B3 DNA 2 with G23T, A24C
B5: proMdUFGT W5 (dsDNA)
DNA 1: TTTTTTGCAACAAATTACCTTTGACTAACAAAACAAGGATATTTCT
DNA 2: AGAAATATCCTTGTTTTGTTAGTCAAAGGTAATTTGTTGCAAAAAA
B6: proMdUFGT W5 mutant (dsDNA)
DNA 1: B5 DNA 1 with G23T, A24C
DNA 2: B5 DNA 2 with T23G, C24A
B7: proMdF3'5'H W2 (dsDNA)
DNA 1: TAAATAGTATCTAACGAAAATTGACCGCACGATATACAATGAACGA
DNA 2: TCGTTCATTGTATATCGTGCGGTCAATTTTCGTTAGATACTATTTA
B8: proMdF3'5'H W2 mutant (dsDNA)
DNA 1: B7 DNA 1 with G23T, A24C
DNA 2: B7 DNA 2 with T23G, C24A

What follows are binders tested against MdWRKY10 (Malus domestica, UniProt D9ZJE9 1-528) (assay: EMSA; EMSA with LightShift chemiluminescent kit (Thermo) per manufacturer; buffer, pH and temperature not stated). Details: protein: recombinant; tags: His (pET-32a(+) vector); label: 3' biotin; blunt.
Chain of MdWRKY10 (D9ZJE9 entry or part of it): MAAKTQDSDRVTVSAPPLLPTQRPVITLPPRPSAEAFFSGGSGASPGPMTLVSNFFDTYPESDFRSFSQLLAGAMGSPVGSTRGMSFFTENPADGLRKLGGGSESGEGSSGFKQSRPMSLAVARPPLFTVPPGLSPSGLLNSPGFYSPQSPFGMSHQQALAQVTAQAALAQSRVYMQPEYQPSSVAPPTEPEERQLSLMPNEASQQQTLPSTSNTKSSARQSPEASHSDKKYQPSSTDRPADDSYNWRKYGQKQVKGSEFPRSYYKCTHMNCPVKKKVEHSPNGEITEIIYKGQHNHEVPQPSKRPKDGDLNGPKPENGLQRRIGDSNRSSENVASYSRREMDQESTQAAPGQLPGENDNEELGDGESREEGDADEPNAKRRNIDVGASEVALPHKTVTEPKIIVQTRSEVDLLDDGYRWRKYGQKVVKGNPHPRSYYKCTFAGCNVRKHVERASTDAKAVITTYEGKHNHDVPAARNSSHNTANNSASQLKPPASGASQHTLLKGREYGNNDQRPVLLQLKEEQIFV
B1: binds. B2: no binding. B3: binds. B4: no binding. B5: binds. B6: no binding. B7: binds. B8: no binding.

— paper PMC11321683, “A Functional InDel in the WRKY10 Promoter Controls the Degree of Flesh Red Pigmentation in Apple”
